{"source": "paper PMC4282423", "target": "T1, BldD (His-tagged) (Streptomyces coelicolor) (UniProt Q7AKQ8)", "T1 sequence": "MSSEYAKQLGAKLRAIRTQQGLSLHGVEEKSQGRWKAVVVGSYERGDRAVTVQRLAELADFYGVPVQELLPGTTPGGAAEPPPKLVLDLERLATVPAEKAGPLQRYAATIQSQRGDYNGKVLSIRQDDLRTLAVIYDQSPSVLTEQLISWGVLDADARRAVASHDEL", "assay": "DNase I footprinting", "settings": "EMSA and extract footprinting: 25 mM HEPES pH 7.5, 4 mM DTT, 1 mM ATP, 10 mM Mg-acetate, 4% glycerol, 1 ug poly(dI-dC), 30 C, 20 min; purified BldD …"}
{"sequence": "GTGCAGGCCGTCAGCAGCAGGGCGGAGGCGCCCAGGGCACCGACCACGGCCAGCGAACGCAAGGGGGGAAGTCGTCGTGCAGAGCTCATGATGCTGTCCGTAACCGCTCCGTCACGCAGACACACCGGACCGGTATGAAAATCACCCTATTGGCCGGGGTGGGGCGACGTCCCGTGGGCGGCGGGACCGGGAGCCTTCAG (double strand) [sspA promoter footprint probe (7434_F1/7434_R1)]", "values": [{"measurement": "binding", "result": "binds"}]}
